Reference: patent publication EP4806514A2 (Lepu Biopharma Co., Ltd., dated 2025)
Positions count from the first letter of the chain named.

T1: human CDH17, full length, expressed on cells (HEK293-hCDH17); AsPC-1, HCT-8, AGS, LoVo, KATO III, HT-29 tumor … (human, UniProt Q12864 23-832)
T1 construct: also called human CDH17 expressed on tumor cells
T1 sequence: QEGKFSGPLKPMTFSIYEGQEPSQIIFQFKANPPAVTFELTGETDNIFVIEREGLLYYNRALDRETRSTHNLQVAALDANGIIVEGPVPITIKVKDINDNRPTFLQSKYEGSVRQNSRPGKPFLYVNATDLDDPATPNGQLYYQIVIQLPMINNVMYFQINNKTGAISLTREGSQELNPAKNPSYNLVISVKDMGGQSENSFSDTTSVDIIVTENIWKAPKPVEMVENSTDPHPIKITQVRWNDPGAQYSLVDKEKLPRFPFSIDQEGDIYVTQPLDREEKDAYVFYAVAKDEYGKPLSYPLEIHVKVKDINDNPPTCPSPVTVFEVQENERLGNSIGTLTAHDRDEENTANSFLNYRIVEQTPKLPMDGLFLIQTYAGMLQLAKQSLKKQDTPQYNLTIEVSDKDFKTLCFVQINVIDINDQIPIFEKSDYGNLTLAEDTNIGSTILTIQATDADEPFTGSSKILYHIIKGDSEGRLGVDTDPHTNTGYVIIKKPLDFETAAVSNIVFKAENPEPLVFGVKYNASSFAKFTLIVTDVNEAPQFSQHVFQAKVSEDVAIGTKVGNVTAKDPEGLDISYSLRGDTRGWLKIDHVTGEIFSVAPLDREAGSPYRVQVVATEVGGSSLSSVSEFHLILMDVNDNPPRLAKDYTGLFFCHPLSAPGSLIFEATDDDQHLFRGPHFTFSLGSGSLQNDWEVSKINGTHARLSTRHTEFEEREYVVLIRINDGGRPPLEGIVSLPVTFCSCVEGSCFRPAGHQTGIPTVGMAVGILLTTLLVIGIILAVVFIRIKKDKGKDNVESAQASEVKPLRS

T2: hCDH17-his (full length extracellular domain of human CDH17, Q23-M787, his tag at the C-terminal) (human, UniProt Q12864 23-787)
T2 construct: Limits of the construct (UniProt Q12864, Q23-M787, C-terminal his tag); also called human CDH17-his protein; human CDH17 protein
T2 sequence: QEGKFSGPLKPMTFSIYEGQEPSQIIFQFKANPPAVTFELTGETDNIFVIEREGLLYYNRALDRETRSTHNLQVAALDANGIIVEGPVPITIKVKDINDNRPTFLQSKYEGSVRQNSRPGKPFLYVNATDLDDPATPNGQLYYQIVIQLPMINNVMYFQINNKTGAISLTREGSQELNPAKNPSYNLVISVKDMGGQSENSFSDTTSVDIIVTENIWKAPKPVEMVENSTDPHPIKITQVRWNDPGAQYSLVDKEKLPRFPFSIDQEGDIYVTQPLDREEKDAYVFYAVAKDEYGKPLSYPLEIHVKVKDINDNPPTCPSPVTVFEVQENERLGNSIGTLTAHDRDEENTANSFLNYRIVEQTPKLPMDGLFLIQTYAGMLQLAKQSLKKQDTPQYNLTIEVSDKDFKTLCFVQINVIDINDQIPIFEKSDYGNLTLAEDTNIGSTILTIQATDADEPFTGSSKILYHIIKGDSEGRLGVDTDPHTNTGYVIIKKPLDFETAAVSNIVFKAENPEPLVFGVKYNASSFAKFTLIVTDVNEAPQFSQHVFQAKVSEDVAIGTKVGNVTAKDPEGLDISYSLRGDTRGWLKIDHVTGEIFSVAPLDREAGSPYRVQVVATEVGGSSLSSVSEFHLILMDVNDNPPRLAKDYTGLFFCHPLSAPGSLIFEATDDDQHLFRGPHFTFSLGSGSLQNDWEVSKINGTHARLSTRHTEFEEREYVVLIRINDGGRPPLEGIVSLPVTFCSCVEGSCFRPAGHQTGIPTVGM

B1: 29D2D7-z19p3 (antibody, V domains shown)
VH: QVQLVQSGAEVKKPGASVKVSCKASGYTFTDYDMHWVKQAPGQGLEWIGGFDPESAGTVYNLRFKDKATLTADKSTSTAYMELRSLRSEDTAVYYCARKGYYSVSSPFTYWGQGTLVTVSS
VL: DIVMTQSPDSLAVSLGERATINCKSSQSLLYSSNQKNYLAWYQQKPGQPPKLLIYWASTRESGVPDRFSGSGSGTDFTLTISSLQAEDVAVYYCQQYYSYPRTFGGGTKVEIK
notes: PTM-removed variant of 29D2D7-z19; VH is that of 29D2D7-z19
B2: 29D2D7-z19p5 (antibody, V domains shown)
VH: B1 VH
VL: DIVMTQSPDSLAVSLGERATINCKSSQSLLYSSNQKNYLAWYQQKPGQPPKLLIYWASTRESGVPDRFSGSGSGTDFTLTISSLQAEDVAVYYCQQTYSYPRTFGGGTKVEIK
notes: as for B1
B3: 143H10E4-z6 (antibody, V domains shown)
VH: QVQLVQSGAEVKKPGSSVKVSCKASGSTFTDHTIHWVRQAPGQGLEWIGYIYPVYGYTQNNEKFKGRATITADKSTSTAYMELSSLRSEDTAVYYCARSRDSNPYYFDYWGQGTTVTVSS
VL: EIVLTQSPDFQSVTPKEKVTITCTVSSSISSSNLHWYQQKPDQSPKPWIYGTSNLASGVPSRFSGSGSGTDYSLTINSLEAEDAATYYCQQWSSYPFTFGQGTKLEIK
notes: Humanized, human IgG1 constant region; also called 143H10E4 HU-VH1-1 / HU-VL1-3
B4: 143H10E4-z3 (antibody, V domains shown)
VH: B3 VH with I48M, A68V
VL: B3 VL
notes: Humanized, human IgG1 constant region; also called 143H10E4 HU-VH1-0 / HU-VL1-3
B5: 143H10E4-z9 (antibody, V domains shown)
VH: B3 VH with S84N
VL: B3 VL
notes: Humanized, human IgG1 constant region; also called 143H10E4 HU-VH1-2 / HU-VL1-3
B6: 29H8D3-z12p3 (antibody, V domains shown)
VH: QVQLVQSGAEVKKPGASVKVSCKASGYTFTDHTIHWMRQRPGQGLEWIGYIYPRDGYTKYNEKFKDRATLTADTSTSTAYMELRSLRSDDTAVYYCARFYYGYWYFDVWGQGTTVTVSS
VL: DIVMTQSPLSLPVTPGEPASISCRSSKSLLRSNANTYLYWFLQKPGQSPQVLIYRMSNLASGVPDRFSGSGSGTDFTLKISRVEAEDVGVYYCMQHLEYPFTFGQGTKLEIK
notes: PTM-removed variant of 29H8D3-z12
B7: 29H8D3-z12p4 (antibody, V domains shown)
VH: B6 VH with D55E
VL: B6 VL
notes: as for B6
B8: 29H8D3-z12p7 (antibody, V domains shown)
VH: B6 VH with D55E
VL: B6 VL with N35Q
notes: as for B6
B9: 29H8D3-z12p22 (antibody, V domains shown)
VH: B6 VH
VL: B6 VL with A34G, M94L
notes: PTM-removed variant of 29H8D3-z12; VH is that of 29H8D3-z12
B10: 69E3H11-z12a19 (antibody, V domains shown)
VH: QVQLVQSGAEVKKPGASVKVSCKASGYTFTTYWMHWVKQAPGQRLEWIGEIDPSDSYANYNQKFKGKATLTVDKSASTAYMELSSLRSEDTAVYYCALYYGYGDWGQGTTVTVSS
VL: EIVLTQSPGTLSLSPGERATLSCSVSSSISKIHLHWYQQKPGQAPRLLIYRTSNLASGIPDRFSGSGSGTDFTLTISRLEPEDFAVYYCQQGSNLPLTFGQGTRLEIK
B11: 69E3H11-z12a26 (antibody, V domains shown)
VH: B10 VH
VL: B10 VL with K31S, S53R
B12: 69E3H11-z12a20 (antibody, V domains shown)
VH: B10 VH
VL: B10 VL with K31R
B13: 69E3H11-z12a21 (antibody, V domains shown)
VH: B10 VH
VL: B10 VL with S27A, K31R

Target: T1, human CDH17, full length, expressed on …
Test: flow cytometry, HCT-8 cells

binding result | Binder
binds | B1
binds | B2
binds | B3
binds | B4
binds | B5
binds | B6
binds | B7
binds | B8
binds | B9

Target: T1, human CDH17, full length, expressed on …
Test: flow cytometry, LoVo, HCT-8 and AsPC1 cells

binding result | Binder
binds | B10
binds | B11
binds | B12
binds | B13

Target: T2, hCDH17-his (full length extracellular …)
Test: SPR (Biacore 8K), antibody captured on Protein A chip, hCDH17-his injected

binding result | Binder
binds | B3
binds | B4
binds | B5

Target: T2, hCDH17-his (full length extracellular …)
Test: SPR (Biacore 8K), two doses, antibody captured on Protein A chip, hCDH17-his at 25 nM and 100 nM

binding result | Binder
binds | B1
binds | B2
binds | B10
binds | B11
binds | B12
binds | B13
binds | B6
binds | B7
binds | B8
binds | B9
